Laboratory results published in US11419945B2, “Antigen binding proteins” (Glaxo Group Limited, priority 2011, dated 2022).

How the values were obtained:
[1] = molecular target: T1, Human in house BCMA (Homo sapiens, UniProt Q02223); test: ProteOn analysis of CA8 chimeric and humanised constructs, human in house BCMA; format: binding; details: for ka / kd: Run 1, Human in house BCMA, ProteOn, 25° C.; for ka: in M-1s-1 (unit assumed); for kd: in s-1 (unit assumed); for off rate: Run 2, ProteOn, recombinant human BCMA, no affinity values obtained
T1 construct: CD33 signal peptide (N); TEV site (internal); Fc (C); made in house
T1 sequence (Q02223 with tags, fused parts or gaps limits assumed): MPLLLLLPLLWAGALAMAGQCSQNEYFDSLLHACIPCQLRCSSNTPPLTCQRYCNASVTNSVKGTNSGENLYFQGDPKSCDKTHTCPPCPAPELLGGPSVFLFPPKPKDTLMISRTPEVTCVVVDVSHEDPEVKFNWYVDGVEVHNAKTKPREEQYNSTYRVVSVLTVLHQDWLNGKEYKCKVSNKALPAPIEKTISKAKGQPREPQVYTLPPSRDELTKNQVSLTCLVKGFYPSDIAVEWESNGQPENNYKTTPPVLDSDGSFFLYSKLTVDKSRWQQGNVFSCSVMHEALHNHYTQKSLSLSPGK
Method: The initial screen of CA8 chimeric and humanised variants was carried out on the ProteOn XPR36 (Biorad). The method was as follows; Protein A was immobilised on a GLC chip (Biorad, Cat No: 176-5011) by primary amine coupling, CA8 variants were then captured on this surface and recombinant human BCMA (in house or commercial US Biological, B0410) materials (run 2 only)) passed over at 256, 64, 16, 4, 1 nM with a 0 nM injection (i.e. buffer alone) used to double reference the binding curves, the buffer used is the HBS-EP buffer. 50 mM NaOH was used to regenerate the capture surface. The data was fitted to the 1:1 model using the analysis software inherent to the ProteOn XPR36. Run 1 corresponds to the first screen of humanised CA8 variants (JO to J5 series) and run 2 to the second screen of humanised CA8 variants (J5 to J9 series). Both runs were carried out at 25° C.

[2] = tested on: Cyno in house BCMA; test: ProteOn analysis of CA8 chimeric and humanised constructs, cyno in house BCMA; format: binding; details: Run 1, Cyno in house BCMA, 25° C.; for ka: in M-1s-1 (unit assumed); for kd: in s-1 (unit assumed)
Sequence of Cyno in house BCMA (as listed by the source): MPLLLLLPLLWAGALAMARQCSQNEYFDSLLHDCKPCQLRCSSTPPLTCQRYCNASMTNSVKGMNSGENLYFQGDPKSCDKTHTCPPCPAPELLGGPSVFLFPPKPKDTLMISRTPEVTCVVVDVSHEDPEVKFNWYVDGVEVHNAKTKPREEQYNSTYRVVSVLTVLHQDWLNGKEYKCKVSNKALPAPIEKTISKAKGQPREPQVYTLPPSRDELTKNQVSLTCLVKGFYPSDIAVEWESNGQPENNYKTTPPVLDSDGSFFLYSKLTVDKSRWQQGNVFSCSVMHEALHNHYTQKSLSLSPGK

Row | Molecule | ka [1] | kd [1] | off rate [1] | kd [2] | ka [2]
1 | CA8 humanised J3M1: humanised CA8 anti-BCMA antibody, VH J3 (SEQ ID NO:17) + VL M1 (SEQ ID NO:33) (antibody, V domains shown, Humansed antibody sequence) VH: QVQLVQSGAEVKKPGSSVKVSCKGSGYTFTNYWMHWVRQAPGQGLEWMGATYRGHSDTYYNQKFKGRVTITADTSTSTAYMELSSLRSEDTAVYYCTRGAIYNGYDVLDNWGQGTLVTVSS VL: DIQMTQSPSSLSASVGDRVTITCSASQDISNYLNWYQQKPGKAPKLLIYYTSNLHSGVPSRFSGSGSGTDYTLTISSLQPEDFATYYCQQYRKLPWTFGQGTKLEIKR | 2.85E+05 | 1.25E−04 |  | 7.93E−05 | 4.04E+05
2 | CA8 humanised J4M1: humanised CA8 anti-BCMA antibody, VH J4 (SEQ ID NO:19) + VL M1 (SEQ ID NO:33) (antibody, V domains shown, Humansed antibody sequence) VH: QVQLVQSGAEVKKPGSSVKVSCKGSGYTFTNYWMHWVRQAPGQGLEWIGATYRGHSDTYYNQKFKGRATLTADTSTSTAYMELSSLRSEDTAVYYCTRGAIYNGYDVLDNWGQGTLVTVSS VL: DIQMTQSPSSLSASVGDRVTITCSASQDISNYLNWYQQKPGKAPKLLIYYTSNLHSGVPSRFSGSGSGTDYTLTISSLQPEDFATYYCQQYRKLPWTFGQGTKLEIKR | 2.54E+05 | 7.04E−05 |  | 7.10E−05 | 3.50E+05
3 | CA8 humanised J3M2: humanised CA8 anti-BCMA antibody, VH J3 (SEQ ID NO:17) + VL M2 (SEQ ID NO:35) (antibody, V domains shown, Humansed antibody sequence) VH: QVQLVQSGAEVKKPGSSVKVSCKGSGYTFTNYWMHWVRQAPGQGLEWMGATYRGHSDTYYNQKFKGRVTITADTSTSTAYMELSSLRSEDTAVYYCTRGAIYNGYDVLDNWGQGTLVTVSS VL: DIQLTQSPSSLSASVGDRVTITCSASQDISNYLNWYQQKPGKAPELVIYYTSNLHSGVPSRFSGSGSGTDYTLTISSLQPEDFATYYCQQYRKLPWTFGQGTKLEIKR | 2.66E+05 | 9.64E−05 |  | 5.87E−05 | 3.69E+05
4 | CA8 humanised J4M2: humanised CA8 anti-BCMA antibody, VH J4 (SEQ ID NO:19) + VL M2 (SEQ ID NO:35) (antibody, V domains shown, Humansed antibody sequence) VH: QVQLVQSGAEVKKPGSSVKVSCKGSGYTFTNYWMHWVRQAPGQGLEWIGATYRGHSDTYYNQKFKGRATLTADTSTSTAYMELSSLRSEDTAVYYCTRGAIYNGYDVLDNWGQGTLVTVSS VL: DIQLTQSPSSLSASVGDRVTITCSASQDISNYLNWYQQKPGKAPELVIYYTSNLHSGVPSRFSGSGSGTDYTLTISSLQPEDFATYYCQQYRKLPWTFGQGTKLEIKR | 2.51E+05 | 7.06E−05 |  | 6.15E−05 | 3.44E+05

Continued, in another order:

Row | ka [1] | kd [1] | off rate [1] | kd [2] | Molecule | ka [2]
5 | 2.67E+05 | 3.21E−05 | beyond the sensitivity of the assay | 4.70E−05 | CA8 humanised J5M2: humanised CA8 anti-BCMA antibody, VH J5 (SEQ ID NO:21) + VL M2 (SEQ ID NO:35) (antibody, V domains shown, Humansed antibody sequence) VH: QVQLVQSGAEVKKPGSSVKVSCKGSGYTFTNYWMHWVRQAPGQGLEWMGATYRGHSDTYYNQKFKGRVTITADTSTSTAYMELSSLRSEDTAVYYCTRGAIYDGYDVLDNWGQGTLVTVSS VL: DIQLTQSPSSLSASVGDRVTITCSASQDISNYLNWYQQKPGKAPELVIYYTSNLHSGVPSRFSGSGSGTDYTLTISSLQPEDFATYYCQQYRKLPWTFGQGTKLEIKR | 4.30E+05
6 | 2.05E+05 | 9.87E−05 |  | 3.17E−05 | CA8 humanised J2M2: humanised CA8 anti-BCMA antibody, VH J2 (SEQ ID NO:15) + VL M2 (SEQ ID NO:35) (antibody, V domains shown, Humansed antibody sequence) VH: QVQLVQSGAEVKKPGSSVKVSCKASGYTFTNYWMHWVRQAPGQGLEWMGATYRGHSDTYYNQKFKGRVTITADKSTSTAYMELSSLRSEDTAVYYCTRGAIYNGYDVLDNWGQGTLVTVSS VL: DIQLTQSPSSLSASVGDRVTITCSASQDISNYLNWYQQKPGKAPELVIYYTSNLHSGVPSRFSGSGSGTDYTLTISSLQPEDFATYYCQQYRKLPWTFGQGTKLEIKR | 2.98E+05
7 | 2.31E+05 | 8.60E−05 |  | 1.67E−04 | CA8 humanised J0M1: humanised CA8 anti-BCMA antibody, VH J0 (SEQ ID NO:11) + VL M1 (SEQ ID NO:33) (antibody, V domains shown, Humansed antibody sequence) VH: QVQLVQSGAEVKKPGSSVKVSCKASGGTFSNYWMHWVRQAPGQGLEWMGATYRGHSDTYYNQKFKGRVTITADKSTSTAYMELSSLRSEDTAVYYCARGAIYNGYDVLDNWGQGTLVTVSS VL: DIQMTQSPSSLSASVGDRVTITCSASQDISNYLNWYQQKPGKAPKLLIYYTSNLHSGVPSRFSGSGSGTDYTLTISSLQPEDFATYYCQQYRKLPWTFGQGTKLEIKR | 3.32E+05
8 | 2.25E+05 | 6.97E−05 |  | 1.84E−04 | CA8 humanised J0M2: humanised CA8 anti-BCMA antibody, VH J0 (SEQ ID NO:11) + VL M2 (SEQ ID NO:35) (antibody, V domains shown, Humansed antibody sequence) VH: QVQLVQSGAEVKKPGSSVKVSCKASGGTFSNYWMHWVRQAPGQGLEWMGATYRGHSDTYYNQKFKGRVTITADKSTSTAYMELSSLRSEDTAVYYCARGAIYNGYDVLDNWGQGTLVTVSS VL: DIQLTQSPSSLSASVGDRVTITCSASQDISNYLNWYQQKPGKAPELVIYYTSNLHSGVPSRFSGSGSGTDYTLTISSLQPEDFATYYCQQYRKLPWTFGQGTKLEIKR | 3.26E+05
9 | 2.97E+05 | 4.32E−05 | beyond the sensitivity of the assay | 5.41E−05 | CA8 humanised J5M1: humanised CA8 anti-BCMA antibody, VH J5 (SEQ ID NO:21) + VL M1 (SEQ ID NO:33) (antibody, V domains shown, Humansed antibody sequence) VH: QVQLVQSGAEVKKPGSSVKVSCKGSGYTFTNYWMHWVRQAPGQGLEWMGATYRGHSDTYYNQKFKGRVTITADTSTSTAYMELSSLRSEDTAVYYCTRGAIYDGYDVLDNWGQGTLVTVSS VL: DIQMTQSPSSLSASVGDRVTITCSASQDISNYLNWYQQKPGKAPKLLIYYTSNLHSGVPSRFSGSGSGTDYTLTISSLQPEDFATYYCQQYRKLPWTFGQGTKLEIKR | 4.81E+05
